Literature values as cited in article PMC4289615.
pKd: −log10 of the molar value.

Molecular target: IL-2Rβγ (intermediate-affinity IL-2 receptor) (Homo sapiens) (UniProt P14784)
UniProt P14784, sequence (P14784 27-240, chain 1 of 2): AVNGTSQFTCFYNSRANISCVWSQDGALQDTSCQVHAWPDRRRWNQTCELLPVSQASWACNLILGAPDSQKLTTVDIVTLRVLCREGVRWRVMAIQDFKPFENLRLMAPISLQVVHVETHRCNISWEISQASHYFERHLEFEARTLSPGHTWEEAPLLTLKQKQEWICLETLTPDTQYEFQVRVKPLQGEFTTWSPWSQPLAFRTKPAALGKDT
UniProt P14784, sequence (P31785 23-262, chain 2 of 2, further chain): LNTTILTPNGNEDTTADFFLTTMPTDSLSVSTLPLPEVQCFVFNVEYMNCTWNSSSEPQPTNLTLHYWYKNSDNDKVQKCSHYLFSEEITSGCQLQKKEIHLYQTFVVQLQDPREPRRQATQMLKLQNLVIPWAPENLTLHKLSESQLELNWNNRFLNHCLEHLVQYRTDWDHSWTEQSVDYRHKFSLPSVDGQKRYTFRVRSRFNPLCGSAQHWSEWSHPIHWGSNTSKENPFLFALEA

IL-2, sequence (P60568 21-153): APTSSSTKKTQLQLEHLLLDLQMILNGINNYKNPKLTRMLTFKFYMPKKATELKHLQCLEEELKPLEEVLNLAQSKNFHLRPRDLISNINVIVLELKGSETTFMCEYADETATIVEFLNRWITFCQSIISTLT

- pKd: 9.00
Substance: IL-2 (from UniProt P60568)
